US20240043505A1 (UNIVERSITY OF PITTSBURGH OF THE COMMONWEALTH SYSTEM OF …, published 2024)

Target: SARS-CoV-2 spike receptor-binding domain (RBD) (SARS-CoV-2, UniProt P0DTC2 319-541)
Assay: indirect ELISA on coated RBD ('ELISA affinity')

Binder	IC50 [pM]
Nb42 (VHH) VHH: HVQLVESGGGLVQAGESLRLSCVASGSIFSINAMGWFRQAPGKQRELVASISNIGTTIYAESVKGRFTISRDNAKNTADLQMNSLKPEDTAIYYCNLRQGCSYNGCDEYWGQGTQVTVSS	660
Nb68 (VHH) VHH: QVQLVESGGGLVQAGGSLRLSCAASGGTLRSYNMGWFRQGPGKEREFVAAISWTGLGTYYGDSVKGRFTISRDVIKNTLYLQMDSLKPEDTAIYYCAADSSTSRLHSAGSDYRYWGQGTQVTVSS	6110
Nb39 (VHH) VHH: QVQLVESGGGLVQAGGSLRLSCAASGRTFRFSAIDWYRQAPGQQREFVASISTSGRISYGHFVKGRFTISRDNAKNTMYLQMNSLKPEDTAVYYCHLAQPDVFGGGDYWGQGTQVTVSS	1490
Nb55 (VHH) VHH: DVQLVESGGGLVQAGGSLRLSCAASGRTFGSTMAWFRQAPGKERDFVAAITWSADRISYADSVKGRFTISRDNDKNIVHLQMNSLKPEDTAVYVCAARASSNTYDDPRSFAFWGQGTQVTVSS	2240
Nb60 (VHH) VHH: HVQLVESGGGLVQAGDSLRLSCAASERTNINYAMGWFRQAPGKERDFVAAIGWNGSIIKYAESVKGRFTISRDDAKNTVSLQMNSLKPEDTAVYYCAARIGSIANLQPREYEFAYWGQGTQVTVSS	138000
Nb58 (VHH) VHH: QVQLVESGGGLVQAGGSLRLSCAASGRDFSSTVMGWFRQAPGKERELVAWMTVTYDITYYADSVKGRFTISKDNAKNTVYLQANSLKPDDTAVYYCASGALRVGSFSPDYWGQGTQVTVSS	2680
Nb62 (VHH) VHH: HVQLVESGGGLVQAGGSLRLTCAASGRTFSSSTMDMGWFRQAPGKEREFVAVDAWNDGRTYYADSVKGRFTISRDNAKNTLYLQMNSLKPGDTAVYYCHAVDVSVGGDYWGQGTQVTVSS	85700
Nb37 (VHH) VHH: QVQLVESGGGLVQTGGSLRLSCAASGRTFSNYVMGWFRQAPGKEREFVSSIEWNSENTFYANSVKGRFTISRDNAKNTVYLQMNSLKAEDTAVYYCAADRGSSYYYTRASEYTYWGQGTQVTVSS	380
Nb6 (VHH) VHH: HVQLVESGGGLVQAGGSLRLSCAASGRTFSTHATGWFRQAPGKEREFLATSVWLDDISRDSTYYAESVKGRFSISRDNAKDTVYLQMNSLKPEDTAVYYCAVKQRVGPGIMSAPTYDYWGQGTQVTVSS	570
Nb16 (VHH) VHH: DVQLVESGGGLVQAGESLRLSCAASGDMFSSNAMAWYRQAPGKQRELVASITSGGNTNYADSVKGRFTISRDNAKNTVYLQMDSLKPEDTAVYYCNGVAYDYSWGRPRNFWGQGTQVTVSS	370
Nb46 (VHH) VHH: QVQLVESGGGLVQAGGSLRLSCAVSGSTLGINAIGWYRQPPGKQRELVASISSLGTTLYAESVKGRFAISRDNAKNTGYLQMNSLKPDDTAVYYCNMRTPYMRDYWGQGTQVTVSS	25900
Nb41 (VHH) VHH: DVQLVESGGGLVQAGGSLRLSCAASGFTFSNYVMYWGRQAPGKGREWVSGIDSDGSDTAYASSVKGRFTISRDNAKKTLYLQMNDLKPEDTALYYCVKSKDRYGSPWTRSEFEDYWGQGTQVTVSS	200
Nb66 (VHH) VHH: HVQLVESGGGLVQAGGSLRLSCAASGRTFSVNSIAWFRQAPGKEREFVATINWSGGDIYYADSVKGRFTISRDNGKNTVYLQMNSLKPTDTAVYYCAAARFYGRSIAQDYDSWGQGTQVTVSS	330
Nb18 (VHH) VHH: DVQLVESGGGLVQAGGSLRLSCAASGRTFSSYNVGWFRQAPGKEREFVAFIRWSGTSTYYADSVKGRFTISRDNAKNTVYLQMNSLKPEDTAVYYCAATSRTMIHTSQAMPINWDYWGQGTQVTVSS	570
Nb100 (VHH) VHH: EVQLVESGGGLVQAGGSLRLSCAASGLTFSSYNMGWFRQAPGKEREFVAFIRWSGTSTYYADSVKGRFTISRDTAKNTVYLQMNSLKLEDTAVYYCAATSRTMIHTSQTMRINWDYWGQGTQVTVSS	1040
Nb84 (VHH) VHH: DVQLVESGGGLVQAGGSLRLSCAASGRTFSSYSMGWFRQAPGKEREFVAFIRWSGTSTYYADSVKGRFTISRDNAKNTVYLQMNSLKPDDTAVYYCAASSRTMNTISQTMRINWDYWGQGTQVTVSS	530
Nb3 (VHH) VHH: HVQLVESGGGLVQAGGSLRLSCVASGSGFEPNAMGWYRQAPGKQRELVAGITSGGNTNYADSVKGRFTISRDNVKNTVYLQMNSLKPEDTAVYYCNAVAPRINPRGSPTNYWGQGTQVTVSS	480

Binder	IC50 [pM]
Nb4 (VHH) VHH: QVQLVESGGGLVQAGGSLRLSCVASGSGFEPNAMGWYRQAPGKQRELVAGITSGGNANYADSVKGRFTISRDNVKNTVYLQMNSLKPEDTAVYYCNAVGPRFNPRGSPTNYWGQGTQVTVSS	670
Nb64 (VHH) VHH: QVQLVESGGGLVQAGGSLRLSCAVSGRTFSIAGMGWFRQAPGKDREFLGGITWNDGTTWYADSVKGRFTISRDNAKNMLSLRMNSLKPEDTAVYYCAAGPRLGSTPRAYDYWGQGTQVTVSS	450
Nb11 (VHH) VHH: HVQLVESGGGLVQAGGSLRLSCAVSGASAERVGWFRRAPGKEREFVAAIGANGGSTNYLDSVKGRFTISRDNAKNTVYLQMNSLKPQDTAVYYCAARNLETFDYTYWGRGTQVTVSS	390
Nb78 (VHH) VHH: QVQLVESGGGLVQAGGSLRLSCAISGASANRVGWFRRAPGKEREFVAAIGASGGMTNYLDSVKGRFTISRDNAKNTVYLQMNSLKPQDTAVYYCAARNIETAEYTYWGQGTQVTVSS	610
Nb63 (VHH) VHH: QVQLVESGGGLVQAGGSLRLSCVASGSGFEPNAMGWYRQAPGKQRELVAGITSGGNANYADSVKGRFTISRDNVKNTVYLQMNSLKPEDTAVYYCQGPACSGSGCRNYWGQGTQVTVSS	840
Nb2 (VHH) VHH: QVQLVESGGGLVQAGGSLRLSCAASGRTFSIYNMGWFRQAPGKEREFVIHMNWSNGNTATAASVKDRFTISRDNAKNTVYLQMSSLKPEDTAVYYCHATTNDYDYWGQGTQVTVSS	4820
Nb76 (VHH) VHH: DVQLVESGGGLVQAGGSLRLSCAVSGRTFSISTMGWFRQAPGKERLFVAGITWHDGSTNYADSVKGRFTISRDNAKNTVYLQMNSLKPEDTALYYCAARKSINYVQEYDYWGRGTQVTVSS	170
Nb15 (VHH) VHH: EVQLVESGGGLVAAGGSLRLSCVPSTNIFSANAMGWYRQAPGKQRELVASITSGGNTNYADSVKGRFTISRDNADTVILQMNSLKPEDTAVYYCKGTAYSTTYNSVRDYWGQGTQVTVSS	470
Nb24 (VHH) VHH: QVQLVESGGGLVQAGGSLRLTCAASGGTFSTSTMDMGWFRQAPGKEREFVALDSWNGGRTYYADSVKGRFTISRDNAKNTLYLQMNSLKPEDTAVYYCAADTYSNYEKDDSWGYWGQGTQVTVSS	770
Nb26 (VHH) VHH: HVQLVESGGGLVQAGGSLRLTCAASGRTFSISTMDMGWFRQAPGKEREFVAADAWNDGRTYYADSVKGRFTISRDNAKNTLYLQMNSLKPEDTAVYYCTADTYSNYKKDDSWGYWGQGTQVTVSS	920
Nb29 (VHH) VHH: HVQLVESGGGLVQAGGSLRLTCAASGGTFSTSTMDMGWFRQAPGKEREFVAVDSWNDGRAYYADSVKGRFTISRDNAKNTLYLQMNSLKPEDTAVYYCAAETYSNYEKAYSWGYWGQGTQVTVSS	1250
Nb32 (VHH) VHH: DVQLVESGGGLVQAGGSLRLSCAASGRTFSSDTMDMGWFRQAPGKEREFVALHSWNGGKTYYADSVKGRFTISRDNAKNTLYLQMNNLKPEDTAVYYCAAETYTLYEKDSSWGYWGQGTQVTVSS	2170
Nb28 (VHH) VHH: HVQLVESGGGLVQAGGSLRLSCAASGRTFSTSTMDMGWFRQAPGKEREFVGADSWNDGRTYYADSVKGRFTISRDNAKNTLYLQMNNLKPEDTAVYYCAAETYSLYEKSDSWGYWGQGTQVTVSS	920
Nb74 (VHH) VHH: HVQLVESGGGLVQAGGSLRLSCAASGRTFSSHAMAWFRQAPGKEREFVAGISWSGPYYVDSVKGRFTISTDNAKNTVYLQMNSLTPEDTAVYYCASSRGPNLYPHIGDVEYWGQGTQVTVSS	67100
Nb43 (VHH) VHH: EVQLVESGGGLVQAGGSLRLTCAASGRTFSSSTMDMGWFRQAPGKEREFVAVDAWNDGRTYYADSVKGRFTISRDNAKNTLYLQMNSLKPEDTAIYYCNLRQGCSYNGCDEYWGQGTQVTVSS	664000
Nb48 (VHH) VHH: HVQLVESGGGLVQAGGSLRLSCAASGSIFRHYNMGWFRQAPGKEREFVSAISWTNIGTYYADSVKGRFSISRDNNRNTAYLEMNSLKPEDTAVYYCAADRSEFGSRLYSDENEYDYWGQGTQVTVSS	1080
Nb80 (VHH) VHH: HVQLVESGGGLVQPGGSLRLSCAASGNFFLINVMSWWRQAPGNEHELHELVATITSDGRTNYGDAVQGRFTISRDNAKNTLYLQMNSLKPEDTAVYYCYAQGQGNREYWGQGTQVTVSS	5090
